Experimental data taken from patent US7166568B1, “Compositions and methods to inhibit formation of the C5b-9 complex of complement” (Oklahoma Medical Research Foundation, priority 1998, dated 2007).
Non-standard residues stand in square brackets, D forms with d. No end group written: not given here. allyl‑C = allyl-modified terminal Cys; allyl‑K = allyl-modified terminal Lys

Molecular target: T1, CD59 (Homo sapiens, UniProt P13987)
T1 construct: human erythrocyte membrane glycoprotein CD59 were purified; from tissue; host or cells: human erythrocyte membranes (CD59); synthetic peptide custom ordered from Quality Controlled Biochemicals
T1 sequence (P13987 26-102): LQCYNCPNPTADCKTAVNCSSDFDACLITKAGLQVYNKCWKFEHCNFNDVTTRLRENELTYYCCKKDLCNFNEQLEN
Assay: CD59 binding to hu C9 peptide 359–384, microtiter plate assay with biotin-CD59
Conditions: microplate; corrected for nonspecific binding with 20-fold excess unlabeled CD59
Description: Biotin-CD59—CD59 was biotinylated by incubation (1 h, room temperature) with a 20-fold molar excess of NHS-LC-biotin in 10 mM MOPS, 0.1% Nonidet P-40, pH 9.0 followed by exhaustive dialysis against charcoal, as described by Chang, et al. J. Biol. Chem. 269, 26424–26430 (1994).
CD59 binding to hu C9 peptide 359–384—The specific binding of CD59 to hu C9-derived peptide 359–384 was measured by microtiter plate assay with biotin-CD59, according to modification of published methods of Chang, et al. (1994) and Husler, et al. (1995). Briefly, the BSA-peptide conjugate was adsorbed to 96 well polyvinyl microplates by overnight coating at 5 μg/ml in 0.1 M sodium bicarbonate, pH 8.5. After blocking with 1% (w/v) BSA, wells were washed and incubated (4 hrs., 37° C.) with between 0.5 and 1 μg/ml biotin-CD59. After washing, the bound biotin-CD59 was detected with Vectastain (Vector Labs, Burlingame, Calif.), developed by addition of p-nitrophenyl phosphate (2 mg/ml) and optical density recorded at 405 nm (VMaxMicroplate Reader, Molecular Devices, Inc.). In all experiments, correction was made for background adsorption of biotin-CD59 to BSA-coated wells (no peptide) and for nonspecific binding of biotin-CD59 to peptide, determined in the presence of a 20-fold excess of unlabeled CD59. […]

specific binding of biotin-CD59 to the BSA-coupled peptide: specifically bound
Substance: [allyl-K]-CLGYHLDVSLAFSEISVGAEFNKDD-[allyl-C] ([allyl‑K]CLGYHLDVSLAFSEISVGAEFNKDD[allyl‑C]; not fully specified; printed as [allyl-K]-CLGYHLDVSLAFSEISVGAEFNKDD-[allyl-C]) [C9 peptide 359–384]
